From patent US5726286
Like-named read-outs stand apart in the source and are kept apart here.

Columns and labels:
[1] = target: human MHC class II β chain (human)
[2] = target: human MHC class II β chain (human); remark: listed apart in the source

Row | Substance | Plaques/10^6 PBMC (anti-SRBC antibody formation, hemolytic plaque assay) (Plaques/10^6 PBMC) [1] | Plaques/10^6 PBMC (anti-SRBC antibody formation, hemolytic plaque assay) (Plaques/10^6 PBMC) [2]
1 | BZLF2/Fc fusion protein | 0 | 
2 | IL-4 receptor/Fc fusion protein | 788 | 
3 | Tie/Fc (Fc fusion) |  | 606
